Measured values taken from the supplement of paper PMC10201428.
± gives the standard deviation of the averaged measurements.

B1: library; a variant is named by its letters at N, in order (parent)
chain: AATGTTGTTGATGCAACCATAAAGTGATATTTAATAATTATTTATAATCAGCAACTTAACCACAAAACAACCATATATTGATATNTCACAAAACAACCATAANTTGATATTTTTGTGAATCGAGTATTTCAGCAAAACTACTGCAGTAAGAA

What was measured:
[1] = variants of: B1; assay: relative integration efficiency (T-LR orientation) vs wild-type transposon end (log2 (normalized fold change)); transposon end mutated: left end; higher = more efficient transposition; settings: with VchCAST RNA-guided transposition machinery (E. coli BL21(DE3) host, lacZ target)
Method in brief: (§1)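 A T7-driven effector plasmid encoding a CRISPR array, tniQ-cas8-cas7-cas6 and tnsA-tnsB-tnsC was co-transformed into E. coli BL21(DE3) together with a pUC57 mini-transposon donor holding barcoded pools of 1549 left-end or 1849 right-end variants. Transformants were plated with 0.1 mM IPTG at 37°C for 18 h. Illumina sequencing of PCR-amplified input plasmids and genomic integration junctions gave barcode abundances, and relative integration efficiency is their output/input fold change, normalised to reference barcodes and log-transformed.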

[2] = variants of: B1; assay: relative integration efficiency (T-RL orientation) vs wild-type transposon end (log2 (normalized fold change)); transposon end mutated: left end; higher = more efficient transposition; settings: with VchCAST RNA-guided transposition machinery (E. coli BL21(DE3) host, lacZ target)
Method in brief: as §1

Variant | relative integration efficiency (log2) [1] | relative integration efficiency (log2) [2]
AATGTTGTTGATGCAACCATAACTGTATATTTAATAATTATTTATAATCAGCAACTTAACCACAAAACAACCATATATTGATATCTCACAAAACAACCATAAGTTGATATTTTTGTGAATCGAGTATTTCAGCAAAACTACTGCAGTAAGAA [CG A23C G24T T25G G26T] | -1.99 ± 0.63 | -1.12 ± 0.49
AATGTTGTTGATGCAACCATAAGGTGATATTTAATAATTATTTATAATCAGCAACTTAACCACAAAACAACCATATATTGATATCTCACAAAACAACCATAAGTTGATATTTTTGTGAATCGAGTATTTCAGCAAAACTACTGCAGTAAGAA [CG A23G] | 0.359 ± 0.084 | -0.0169 ± 0.11
AATGTTGTTGATGCAACCATAACGTGATATTTAATAATTATTTATAATCAGCAACTTAACCACAAAACAACCATATATTGATATCTCACAAAACAACCATAAGTTGATATTTTTGTGAATCGAGTATTTCAGCAAAACTACTGCAGTAAGAA [CG A23C] | 0.494 ± 0.15 | -0.467 ± 0.23
AATGTTGTTGATGCAACCATATATTGATATCTCATAATTATTTATAATCAGCAACTTAACCACAAAACAACCATAAGTTGATATTTTACAAAACAACCATAAGTTGATATTTTTGTGAATCGAGTATTTCAGCAAAACTACTGCAGTAAGAA [TG A22T G24T T31C A33C T76A A77G C87T] | -0.123 ± 0.13 | -0.61 ± 0.41
AATGTTGTTGATGCAACCATACCGTGATATTTAATAATTATTTATAATCAGCAACTTAACCACAAAACAACCATATATTGATATCTCACAAAACAACCATAAGTTGATATTTTTGTGAATCGAGTATTTCAGCAAAACTACTGCAGTAAGAA [CG A22C A23C] | -1.74 ± 0.31 | -1.42 ± 0.42
AATGTTGTTGATGCAACCATATAGTGATATTTAATAATTATTTATAATCAGCAACTTAACCACAAAACAACCATAAATTGATATCTCACAAAACAACCATATGTTGATATTTTTGTGAATCGAGTATTTCAGCAAAACTACTGCAGTAAGAA [CG A22T T76A A102T] | 0.271 ± 0.39 | 0.269 ± 0.11
AATGTTGTTGATGCAACCATATTCAGATATTTAATAATTATTTATAATCAGCAACTTAACCACAAAACAACCATATATTGATATCTCACAAAACAACCATAAGTTGATATTTTTGTGAATCGAGTATTTCAGCAAAACTACTGCAGTAAGAA [CG A22T A23T G24C T25A] | -1.61 ± 0.58 | -1.21 ± 0.56
AATGTTGTTGATGCAACCATATATTGATATCTCATAATTATTTATAATCAGCAACTTAACCACAAAACAACCATAAAATGATAATTAACAAAACAACCATAAGTTGATATTTTTGTGAATCGAGTATTTCAGCAAAACTACTGCAGTAAGAA [TG A22T G24T T31C A33C T76A T78A T84A C87A] | -0.618 ± 0.17 | -0.5 ± 0.36
AATGTTGTTGATGCAACCATATATTGATATCTCATAATTATTTATAATCAGCAACTTAACCACAAAACACCCATAAATTGATATTGCACAAAACAACCATAAGTTGATATTTTTGTGAATCGAGTATTTCAGCAAAACTACTGCAGTAAGAA [TG A22T G24T T31C A33C A70C T76A T86G] | -0.285 ± 0.49 | -0.627 ± 0.19
AATGTTGTTGATGCAACCATATATTGATATCTCATAATTATTTATAATCAGCAACTTAACCACAAAACAACCATAAAGTGATATTTAACAAAACAACCATAAGTTGATATTTTTGTGAATCGAGTATTTCAGCAAAACTACTGCAGTAAGAA [TG A22T G24T T31C A33C T76A T78G C87A] | 1.14 ± 0.4 | 0.463 ± 0.49
AATGTTGTTGATGCAACCATACCTGGATATTTAATAATTATTTATAATCAGCAACTTAACCACAAAACAACCATATATTGATATCTCACAAAACAACCATAAGTTGATATTTTTGTGAATCGAGTATTTCAGCAAAACTACTGCAGTAAGAA [CG A22C A23C G24T T25G] | -2.32 ± 0.92 | -2.89 ± 0.82
AATGTTGTTGATGCAACCATTAAGTGATATTTAATAATTATTTATAATCAGCAACTTAACCACAAAACAACCATTTATTGATATCTCACAAAACAACCATTAGTTGATATTTTTGTGAATCGAGTATTTCAGCAAAACTACTGCAGTAAGAA [CG A21T A75T A101T] | -1.38 ± 0.99 | -1.31 ± 0.37
AATGTTGTTGATGCAACCATATATTGATATCTCATAATTATTTATAATCAGCAACTTAACCACAAAACACCCATAAATTGATAATTAACAAAACAACCATAAGTTGATATTTTTGTGAATCGAGTATTTCAGCAAAACTACTGCAGTAAGAA [TG A22T G24T T31C A33C A70C T76A T84A C87A] | -0.478 ± 0.83 | -0.488 ± 0.46
AATGTTGTTGATGCAACCATATATTGATATCTCATAATTATTTATAATCAGCAACTTAACCACAAAACAACCATATATTGATATCTCACAAAACAACCATAAGTTGATATTTTTGTGAATCGAGTATTTCAGCAAAACTACTGCAGTAAGAA [CG A22T G24T T31C A33C] | -0.141 ± 0.18 | -0.0346 ± 0.14
AATGTTGTTGATGCAACCATAACTTGATATTTAATAATTATTTATAATCAGCAACTTAACCACAAAACAACCATATATTGATATCTCACAAAACAACCATAAGTTGATATTTTTGTGAATCGAGTATTTCAGCAAAACTACTGCAGTAAGAA [CG A23C G24T] | -0.153 ± 0.042 | -0.106 ± 0.064
AATGTTGTTGATGCAACCATATTGTGATATTTAATAATTATTTATAATCAGCAACTTAACCACAAAACAACCATATATTGATATCTCACAAAACAACCATAAGTTGATATTTTTGTGAATCGAGTATTTCAGCAAAACTACTGCAGTAAGAA [CG A22T A23T] | -0.158 ± 0.56 | -0.421 ± 0.27
AATGTTGTTGATGCAACCATATAGTGATATTTAATAATTATTTATAATCAGCAACTTAACCACAAAACAACCATATATTGATATCTCACAAAACAACCATAAGTTGATATTTTTGTGAATCGAGTATTTCAGCAAAACTACTGCAGTAAGAA [CG A22T] | 0.128 ± 0.29 | 0.0984 ± 0.17
AATGTTGTTGATGCAACCATAGAGTGATATTTAATAATTATTTATAATCAGCAACTTAACCACAAAACAACCATATATTGATATCTCACAAAACAACCATAAGTTGATATTTTTGTGAATCGAGTATTTCAGCAAAACTACTGCAGTAAGAA [CG A22G] | -1.1 ± 1.1 | -0.733 ± 0.88
AATGTTGTTGATGCAACCATACAGTGATATTTAATAATTATTTATAATCAGCAACTTAACCACAAAACAACCATATATTGATATCTCACAAAACAACCATAAGTTGATATTTTTGTGAATCGAGTATTTCAGCAAAACTACTGCAGTAAGAA [CG A22C] | -1.26 ± 0.71 | -1.07 ± 0.48
